In PMC10708208 (Science Advances, 2023):
Read-outs that look alike come from different tables or passages of the source.

B1: SipA^β (SipA_(426–685)) (domain or fragment)
chain: GETTSFDEVDGVTSKSIIGKPVQATVHGVDDNKQQSQTAEIVNVKPLASQLAGVENVKTDTLQSDTTVITGNKAGTTDNDNSQTDKTGPFSGLKFKQNSFLSTVPSVTNMHSMHFDARETFLGVIRKALEPDTSTPFPVRRAFDGLRAEILPNDTIKSAALKAQCSDIDKHPELKAKMETLKEVITHHPQKEKLAEIALQFAREAGLTRLKGETDYVLSNVLDGLIGDGSWRAGPAYESYLNKPGVDRVITTVDGLHMQR
B2: SipA^α (SipA_(497–669)) (domain or fragment)
chain: NKAGTTDNDNSQTDKTGPFSGLKFKQNSFLSTVPSVTNMHSMHFDARETFLGVIRKALEPDTSTPFPVRRAFDGLRAEILPNDTIKSAALKAQCSDIDKHPELKAKMETLKEVITHHPQKEKLAEIALQFAREAGLTRLKGETDYVLSNVLDGLIGDGSWRAGPAYESYLNKP

Key:
[1] = target: T1, F-actin (cryo-EM samples) ( (chicken and rabbit muscle …, UniProt P68139 1-377)); test: cryo-EM structure
[2] = target: T1, F-actin (cryo-EM samples); test: cryo-EM structure; remark: listed apart in the source

Binder	stoichiometry N [1]	stoichiometry N [2]
B1	0.5 SipA per actin subunit (molar ratio)	–
B2	–	0.5 SipA per actin subunit (molar ratio)
